Measurements: patent publication US20220146535A1

Assays:
[1] = target: T1, N-terminal biotin labeled peptide of SEQ ID NO. 26 without phosphorylated threonine at residue 7 (human); experiment: BLI (Octet Red96), biotinylated peptide on streptavidin biosensor, IgG at 5 ug/mL, 300 s association and 300 s dissociation
T1 sequence (peptide, N-terminal biotin; threonine at residue 7 not phosphorylated): RTPSLPTPPTR

[2] = target: N-terminal biotin labeled peptide of SEQ ID NO. 26 with phosphorylated threonine at residue 7 (human); experiment: as above
[3] = target: recombinant hTau-pT217 protein having the amino acid sequence of SEQ ID NO: 1 (human) (UniProt P10636); experiment: BLI (Octet Red96), antibody captured on Protein A biosensor, hTau-pT217 in solution, KD=koff/kon; column head prints (nM), paragraph 52 says molar units; not normalized for avidity
UniProt P10636, sequence (P10636 other isoform, or with tags, fused parts or gaps limits assumed): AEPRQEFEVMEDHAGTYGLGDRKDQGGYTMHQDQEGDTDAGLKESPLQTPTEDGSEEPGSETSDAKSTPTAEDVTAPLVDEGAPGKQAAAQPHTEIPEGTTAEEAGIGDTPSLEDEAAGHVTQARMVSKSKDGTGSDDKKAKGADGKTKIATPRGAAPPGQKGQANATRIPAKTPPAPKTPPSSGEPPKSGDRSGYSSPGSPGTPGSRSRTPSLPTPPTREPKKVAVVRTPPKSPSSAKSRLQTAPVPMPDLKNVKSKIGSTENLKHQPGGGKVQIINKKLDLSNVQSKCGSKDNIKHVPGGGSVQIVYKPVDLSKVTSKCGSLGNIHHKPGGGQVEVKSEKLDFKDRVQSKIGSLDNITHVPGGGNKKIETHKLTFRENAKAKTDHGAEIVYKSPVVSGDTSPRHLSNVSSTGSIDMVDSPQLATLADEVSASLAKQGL

[4] = target: recombinant hTau-pT217 protein having the amino acid sequence of SEQ ID NO: 1 (human) (UniProt P10636); experiment: BLI (Octet Red96), antibody captured on Protein A biosensor, hTau-pT217 in solution, 1:1 fit, 25 C; column head prints (M^-1s^-1 units), paragraph 52 says s^-1
[5] = target: recombinant hTau-pT217 protein having the amino acid sequence of SEQ ID NO: 1 (human) (UniProt P10636); experiment: BLI (Octet Red96), antibody captured on Protein A biosensor, hTau-pT217 0.4115-300 nM in solution, 1:1 fit, 25 C

B1: mAb A, exemplified rabbit anti-hTau-pT217 antibody (antibody)
heavy: QSVEESGGRLVTPGTPLTLTCTVSGLSPSWYGVHWVRQAPGKGLEWIGVLRAGSHTYYAGWAKGRFAISKTSTTVALKITSPTTEDTAIYFCGSVGRGIWGPGTLVTVSLGQPKAPSVFPLAPCCGDTPSSTVTLGCLVKGYLPEPVTVTWNSGTLTNGVRTFPSVRQSSGLYSLSSVVSVTSSSQPVTCNVAHPATNTKVDKTVAPSTCSKPTCPPPELLGGPSVFIFPPKPKDTLMISRTPEVTCVVVDVSQDDPEVQFTWYINNEQVRTARPPLREQQFNSTIRVVSTLPIAHQDWLRGKEFKCKVHNKALPAPIEKTISKARGQPLEPKVYTMGPPREELSSRSVSLTCMINGFYPSDISVEWEKNGKAEDNYKTTPAVLDSDGSYFLYSKLSVPTSEWQRGDVFTCSVMHEALHNHYTQKSISRSPGK
light: AQVLTQTASPVSATVGGTVTINCQASLAVYNNNYLAWYQQKPGQPPKRLIYLASSLSSGVSSHFKGSGSGTQFTLTISDVQADDAATYFCQGSYDCTIADCVAFGGGTEVVVKGDPVAPTVLIFPPAADQVATGTVTIVCVANKYFPDVTVTWEVDGTTQTTGIENSKTPQNSADNTYNLSSTLTLTSTQYNSHKEYTCKVTQGTTSVVQSFNRGDC
- binding signal at the end of dissociation [1]: -0.0024 nm
- binding signal at the end of dissociation [2]: 4.42 nm
- Kd [3]: 0.695 nM
- koff [4]: 0.000236 s⁻¹
- kon [5]: 339000 M⁻¹ s⁻¹
